Measurements taken from patent US11161884B2 (SAVID THERAPEUTICS INC., priority 2014, dated 2021).

Columns and labels:
[1] = tested on: DLD1 cells; test: Cell staining and analysis of internalization; assay type: cell-based, human; conditions: for staining of the surface of the cell membrane: DLD1, 25 nM, 50 nM and 100 nM
Method: Human colorectal cancer-derived DLD1 cells, used for cell staining, were cultured in a complete medium RPNI1640 (containing 10% FBS), and seeded in uClear 96-well plate (Greiner) in a density of 1×10^4 cells/well, two days before the assay. In the cell staining, first the medium was replaced with a complete medium added with Hoechst 33342 so as to adjust the concentration to 1 μM, and 15 minutes after, each of anti-epiregulin scFv-V2122-FITC, epiregulin IgG-FITC and anti-epiregulin scFv-FITC was added to the individual wells so as to adjust the concentration to 25 nM, 50 nM and 100 nM.
Binding of antibody to the cell surface, and internalization were analyzed using IN Cell Analyzer 6000 (GE Healthcare BioScience Corp.), and recorded by time lapse imaging at 5 minute intervals.

[2] = tested on: DLD1 cells having epiregulin expressed; test: FACS analysis of cell surface binding potential; assay type: cell-based, human; conditions: 0, 0.5, 5, 50 nM, on ice 30 minutes
Method: Cell surface binding potential was determined by FACS, using labeled antibodies that are anti-epiregulin scFv-V2122-FITC, epiregulin IgG-FITC and anti-epiregulin scFv-FITC. More specifically, dilute solutions of the labeled antibodies having concentrations of 0 nM, 0.5 nM, 5 nM and 50 nM were allowed to react on ice for 30 minutes with DLD1 cells (1×10^6 cells/mL, […]) having epiregulin expressed therein, and then fluorescence was measured using flow cytometer guava easyCyte 5. The measurement followed the usage and dosage instructions given in the manual of the instrument.

[3] = molecular target: T1, Pro-EPR-mFc (extracellular domain of epiregulin fused with murine Fc region) (Homo sapiens, UniProt O14944); test: SPR antigen binding potential (Biacore T200); conditions: for Kd: SPR kinetics assay, Pro-EPR-mFc captured on CM5, read-out: affinity to the antigen after FITC labeling
T1 construct: made in house; host or cells: Expi293F cells, pcDNA3.4 vector
T1 sequence (O14944 with tags, fused parts or gaps): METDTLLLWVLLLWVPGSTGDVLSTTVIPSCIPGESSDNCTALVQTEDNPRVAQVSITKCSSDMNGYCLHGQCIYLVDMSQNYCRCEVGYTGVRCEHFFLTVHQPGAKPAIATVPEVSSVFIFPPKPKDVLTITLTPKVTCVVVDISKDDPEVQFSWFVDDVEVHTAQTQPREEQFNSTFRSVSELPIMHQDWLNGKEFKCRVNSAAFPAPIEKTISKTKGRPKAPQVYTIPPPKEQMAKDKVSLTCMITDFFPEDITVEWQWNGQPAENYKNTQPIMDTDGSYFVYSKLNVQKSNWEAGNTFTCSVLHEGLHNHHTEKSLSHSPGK
Text: Next, in order to confirm whether the labeling reduced the binding potential or not, the antigen binding potential of anti-epiregulin scFv-V2122-FITC was confirmed by SPR (Biacore T200). More specifically, protein (Pro-EPR-mFc) obtained by fusing the extracellular domain of epiregulin which functions as a ligand with murine Fe region is captured on the sensor chip CM5 having anti-Murine IgG antibody immobilized thereon, and then eluted for kinetics assay with an analyte composed of a two-fold dilution series prepared by diluting a 20 nM anti-epiregulin scFv-V2122-FITC solution into nine steps (FIG. 14). […] Also epiregulin IgG and anti-epiregulin scFv protein were investigated in the binding test in the same way as described above, using a two-fold dilution series prepared by diluting a 300 nM solution into nine steps (FIG. 14). Data was analyzed using Biacore evaluation software.

[4] = tested on: DLD1 tumor; test: In vivo imaging, DLD1 heterotransplantation model; set-up: species or system nude mice; conditions: 25, 50, 100 μg intravenously, pre-labeled with Psyche F-IRDye 800; imaging 2, 24, 48 hours
Method: The thus purified anti-epiregulin scFv-V2122 was mixed with Psyche F-IRDye 800 (Compound 44 in Example) dissolved in DMSO (final concentration was ten-fold molar concentration), and the mixture was incubated on ice for 10 minutes. The buffer was then replaced with Japanese Pharmacopoeia physiological saline (Otsuka Pharmaceutical Co., Ltd.) using Zeba Spin Desalting Column (Thermo Fisher Scientific Inc.) and was stored under cooling. Epiregulin IgG was labeled using ICG Labeling Kit-NH2 (Dojindo Laboratories).
Suspension liquid of human colorectal cancer-derived DLD1 cell and Matrigel Matrix (Corning) were mixed in a ratio of 1:1 (5×10^6 cells/0.1 mL), and 0.1 mL of the mixed liquid was administered subcutaneously in the left side of 5 to 6-week-old female nude mice (Sankyo Labo Service Corporation, Inc.). The mice were bred for several weeks to produce tumor. One week before imaging, the feed was switched to a low fluorescence feed (iVid #1, Oriental Yeast Co., Ltd.) and the breeding was continued. […]
Anti-epiregulin scFv-V2122 antibody (25 μg, 50 μg, 100 μg) preliminarily labeled with fluorescence by allowing it to react with Psyche F-IRDye 800 (Compound 44 in Example), or fluorescent-labeled epiregulin IgG (50 μg) was intravenously administered to nude mice having established DLD1 tumor. […]

[5] = Immunogenicity testing, antibody in serum analyzed by SPR; assay type: in vivo, crab-eating monkey (Macaca fascicularis); conditions: 1 mg purified protein administered three times (Day 0, 21, 42); four monkeys
Method: Immunogenicity testing was conducted using four crab-eating monkeys. One milligram of the purified protein was administered three times. Before administration, blood was collected for preparing a negative control serum, followed by three times of administration of 1 mg each of purified protein. More specifically, letting the first day of administration of Day 0, the second administration fell on Day 21, and the third administration fell on Day 42. For V2122, blood was collected on Days 7, 14, 28 and 35 to prepare serum samples, and for the other, blood was collected on Days 7, 14, 28, 35, 49 and 56 to prepare serum samples.
Antibody against V2122 in the serum samples was analyzed by surface plasmon resonance (SPR). More specifically, Biacore T200 (GE Healthcare BioScience Corp.) was used as a measuring instrument, which was operated in the mode using immunogenicity package. The sensor chip was CM5. As instructed by the manual, V2122 protein (10 μg/mL) was immobilized on the CM5 sensor chip using an amine coupling kit. Serum was diluted ten-fold with a running buffer (HBS-EP, GE Healthcare BioScience Corp.) for the interaction analysis. More specifically, the serum diluted ten-fold was loaded into the running buffer at a flow rate of 10 μL/min for 5 minutes. The obtained sensorgram was analyzed using an analytical software named Biacore T200 Evaluation Software.

[6] = SPR interaction of streptavidin mutants with biotin (Comparative Example 1); assay type: binding; conditions: biotin 1.8-1800 nM; protein immobilized via His-Tag
Method: (§1) More specifically, using Biacore T200 (GE Healthcare BioScience Corp.) as a measuring instrument, and Sensor Chip NTA (GE Healthcare BioScience Corp.) as a sensor chip, the protein was immobilized on the sensor chip by way of His-Tag having been fused to the core protein. The running buffer was prepared using HBS-P(+), as described in the manual. A dilution series of Compound was prepared by using the running buffer in seven steps of 1.8 nM, 9 nM, 18 nM, 90 nM, 180 nM, 900 nM and 1800 nM, to obtain data.

[7] = SPR interaction of streptavidin mutants with Compound C (Comparative Example 2); assay type: binding; conditions: Compound C 1.8-1800 nM; protein immobilized via His-Tag
Text: as §1, with “Using the purified two […] core streptavidin mutants (cSA-Y43A, cSA-S45A) described above, and purified V2122 protein, interaction with Compound C was investigated by surface plasmon resonance (SPR). More” for “More”

B1: anti-epiregulin scFv-V2122-FITC: FITC-labeled product of purified anti-epiregulin scFv-V2122 (protein)
scFv: QVQLQQSGAEVKKPGASVKVSCKASGFNIKDTYMHWVRQAPEQGLEWMGRIDPLNDKTKYDPKFQGRVTITADTSTNTAYLELSSLTSEDTAVYYCARGGGDPVFVYWGQGTLVTVSASSGGGGSGGGGSGGGGSGGGGSGGDIQMTQSPSSLSASVGDRVTITCKASQDINKYLAWYQHKPGQAPRLLIHYTSTLHPGIPSRFSGSGSGTDFTFSISSLQPEDIATYYCLQYDNLRTFGGGTKVEIKRTSGGGGSGGGGAEAGITGTWSDQLGDTFIVTAGADGALTGTYENAVGGAESRYVLTGRYDSAPATDGSGTALGWTVAWKNNSKNAHSATTWSGQYVGGADAKINTQWLLTSGTTNANAWKSTLVGHDTFTKVKPSAASHHHHHH
time at which internalization began to be observed after addition of antibody ([1]; DLD1): approximately 10 minutes | staining of the surface of the cell membrane [1]: staining of the surface of the cell membrane was observed | migration of fluorescence into the cytoplasm ([1]; DLD1, sixty-five minutes after addition): almost entire part of fluorescence was found to migrate into the cytoplasm | internalization ([1]; DLD1, time lapse imaging at 5 minute intervals): distinct internalization was observed | cell surface binding potential by FACS [2]: equivalent levels of binding potential | affinity relative to epiregulin IgG-FITC and anti-epiregulin scFv-FITC [3]: 100 to 1000 times | Kd [3]: 0.23 nM

B2: anti-epiregulin scFv-V2122: fusion protein formed by anti-epiregulin scFv and V2122; SEQ ID NO: 30 (protein)
chain: MKYLLPTAAAGLLLLAAQPAMAQVQLQQSGAEVKKPGASVKVSCKASGFNIKDTYMHWVRQAPEQGLEWMGRIDPLNDKTKYDPKFQGRVTITADTSTNTAYLELSSLTSEDTAVYYCARGGGDPVFVYWGQGTLVTVSASSGGGGSGGGGSGGGGSGGGGSGGDIQMTQSPSSLSASVGDRVTITCKASQDINKYLAWYQHKPGQAPRLLIHYTSTLHPGIPSRFSGSGSGTDFTFSISSLQPEDIATYYCLQYDNLRTFGGGTKVEIKRTSGGGGSGGGGAEAGITGTWSDQLGDTFIVTAGADGALTGTYENAVGGAESRYVLTGRYDSAPATDGSGTALGWTVAWKNNSKNAHSATTWSGQYVGGADAKINTQWLLTSGTTNANAWKSTLVGHDTFTKVKPSAASHHHHHH
accumulation in tumor [4]: accumulate in the tumor of the model mice earlier (2 hours after administration) than the labeled IgG

B3: anti-epiregulin scFv-FITC: FITC-labeled anti-epiregulin scFv protein (SEQ ID NO: 22) (protein)
scFv: MKYLLPTAAAGLLLLAAQPAMAQVQLQQSGAEVKKPGASVKVSCKASGFNIKDTYMHWVRQAPEQGLEWMGRIDPLNDKTKYDPKFQGRVTITADTSTNTAYLELSSLTSEDTAVYYCARGGGDPVFVYWGQGTLVTVSASSGGGGSGGGGSGGGGSGGGGSGGDIQMTQSPSSLSASVGDRVTITCKASQDINKYLAWYQHKPGQAPRLLIHYTSTLHPGIPSRFSGSGSGTDFTFSISSLQPEDIATYYCLQYDNLRTFGGGTKVEIKRTSHHHHHH
modifications: FITC label
staining of the surface of the cell membrane [1]: staining of the surface of the cell membrane was observed | cell surface binding potential by FACS [2]: level of binding potential lower than those shown by the former two | Kd [3]: 120 nM

B4: V2122: glycine mutant (N49G) of V212 streptavidin mutant; amino acid sequence SEQ ID NO: 4 (protein)
chain: AEAGITGTWSDQLGDTFIVTAGADGALTGTYENAVGGAESRYVLTGRYDSAPATDGSGTALGWTVAWKNNSKNAHSATTWSGQYVGGADAKINTQWLLTSGTTNANAWKSTLVGHDTFTKVKPSAAS
immunogenicity [5]: low as compared with the immunogenicity of the wild-type streptavidin and LISA314 | interaction with biotin (sensorgram) [6]: absence of specific binding | interaction with Compound C (sensorgram) [7]: specific binding showing only an extremely slow dissociation
